The term IC50 denotes the midpoint of a concentration-inhibition curve. A higher IC50 goes with lower potency.

This is an account of results in patent publication US20030026781A1, “Compositions and methods for regulating endogenous inhibitor of ATP synthase, including treatment for diabetes” (MitoKor, priority 1999, published 2003).

The target in the assay is mitochondrial ATP synthase (ETC Complex V) ATPase in rat liver submitochondrial particles (SMP) (rat) (UniProt P15999). Description: cell-based or functional assay.

rat IF1 (from UniProt Q03344 26-107): the IC50 at pH 6.5, inhibition of oligomycin-sensitive ATPase in rat liver SMP came to 190 nM; the IC50 at pH 7.25, inhibition of oligomycin-sensitive ATPase in rat liver SMP turned out to be 420 nM; the concentration for half-maximal inhibition (IC50) at pH 8, inhibition of oligomycin-sensitive ATPase in rat liver SMP was > 800 nM.
